Test system: CP epithelial cells
Assay: Primary culture of choroid plexus cells treated with cytokines, mRNA by real-time qPCR
Assay type: cell-based, mouse
Settings: for expression of IFN-γ-receptor (IFN-γR) mRNA: TNF-α 100 ng/ml, IL-1β 100 ng/ml; for expression of IFN-γ-receptor (IFN-γR) mRNA / gene expression levels of trafficking molecules (ICAM-1, VCAM-1, CCL5, CXCL9, CXCL10, MHC-II): IL-6 10 ng/ml; for gene expression levels of trafficking molecules (ICAM-1, VCAM-1, CCL5, CXCL9, CXCL10, MHC-II): cultured CP cells from WT mice, 24 hours, IL-4 10 ng/ml; for expression of trafficking-related genes, escalating dosing of the cytokines: cultured CP cells, escalating dosing (data not shown)
Description: Mice were perfused from the left ventricle of the heart with PBS, and their CPs were removed under a dissecting microscope (Stemi DV4; Zeiss) in PBS into tubes containing 0.25% trypsin, and kept on ice. The tubes were shaken for 20 minutes at 37° C. and the tissue was dissociated by pipetting. The cell suspension was washed in culture medium for epithelial cells (DMEM/HAM's F12 (Invitrogen Corp)) supplemented with 10% FCS (Sigma-Aldrich), 1 mM 1-glutamine, 1 mM sodium pyruvate, 100 U/ml penicillin, […] streptomycin, 5 μg/ml Insulin, 20 μM Ara-C, 5 ng/ml sodium selenite, 10 ng/ml EGF, and cultured (˜250,000 cells/well) at 37° C., 5% CO2 in 24-well plates (Corning Incorporated) coated with poly-L-lysine (PLL; Sigma-Aldrich). After 24 hours, the medium was changed, and the cells were either left untreated, or treated with the indicated cytokines (all purchased from PeproTech): IFN-γ, IL-4, IL-10, IL-17A, GM-CSF, IL-6, IL-1β or TNF-α or their combinations for 24 h. Cell viability was quantified by Trypan blue staining after detachment of the cells with 0.25% trypsin for 10 minutes at 37° C. Neutralizing antibodies to TNF-R1 or TNF-R2 ([…], BioLegend) were added 1 h prior to the addition of TNF-α (100 ng/ml). RNA was isolated using the ZR RNA microprep kit (Zymo Research) according to the manufacturer's protocol.
Total RNA of the hippocampus was extracted with TRI reagent (MRC, Cincinnati, Ohio) and was purified from the lysates and spinal cord using the RNeasy kit (Qiagen, Hilden, Germany). Total RNA of the choroid plexus was extracted using the RNA MicroPrep kit (Zymo Research). mRNA (1 μg) was converted to cDNA using High Capacity cDNA Reverse Transcription Kit (Applied Biosystems). The expression of specific mRNAs was assayed using fluorescence based real-time quantitative PCR (qPCR). qPCR reactions were performed using Power SYBR Green PCR Master Mix (Applied Biosystems). Quantification reactions were performed in triplicates for each sample using the standard curve method. Glyceraldehyde 3-phosphate dehydrogenase (GAPDH), Peptidylprolyl isomerase A (PPIA), and hypoxanthine guanine phosphoribosyltransferase (HPRT) were chosen as reference genes according to their stability in the target tissue. The amplification cycles were 95° C. for 5 sec, 60° C. for 20 sec, and 72° C. for 15 sec. At the end of the assay, a melting curve was constructed to evaluate the specificity of the reaction. For some genes, the cDNA was pre-amplified in 14 PCR cycles with non-random PCR primers, thus increasing the sensitivity of the subsequent real-time PCR analysis (PreAmp Master Mix Kit, Applied Biosystems). For these genes, expression was determined using TaqMan Real-Time PCR, according to manufacturer's instructions (Applied Biosystems). All quantitative real-time PCR reactions were performed and analyzed using the 7500 Real-Time PCR System (Applied Biosystems). The following TaqMan probes were used: Mm02342430_g1 (ppia), Mm00446968_m1 (hprt), Mm00445260_m1 (il-4), Mm01168134_m1 (ifn-γ), Mm00441238_m1 (ccl11), Mm00475988_m1 (arg-1). In addition, the following primers were used: […]

[1] = IFN-γ 100 ng/ml, IL-17 100 ng/ml

Row | Molecule | expression of IFN-γ-receptor (IFN-γR) mRNA (CP epithelial cells, 24 h) | gene expression levels of trafficking molecules (ICAM-1, VCAM-1, CCL5, CXCL9, CXCL10, MHC-II) [1] | expression of trafficking-related genes, escalating dosing of the cytokines | expression of the chemokine CCL20 (CP epithelial cells, IL-17 100 ng/ml, IFN-γ 100 ng/ml, 24 h)
1 | IL-6: pro-inflammatory cytokine, purchased from PeproTech (protein, UniProt P08505 25-211, looked up) Interleukin-6: FPTSQVRRGDFTEDTTPNRPVYTTSQVGGLITHVLWEIVEMRKELCNGNSDCMNNDDALAENNLKLPEIQRNDGCYQTGYNQEICLLKISSGLLEYHSYLEYMKNNLKDNKKDKARVLQRDTETLIHIFNQEVKDLHKIVLPTPISNALLTDKLESQKEWLRTKTIQFILKSLEEFLKVTLRSTRQT | not | neither IL-17, nor its induced cytokine IL-6, had any effect | None of the tested cytokines, other than IFN-γ, had any effect | –
2 | GM-CSF: cytokine purchased from PeproTech (protein, UniProt P01587 18-141, looked up) Granulocyte-macrophage …: APTRSPITVTRPWKHVEAIKEALNLLDDMPVTLNEEVEVVSNEFSFKKLTCVQTRLKIFEQGLRGNFTKLKGALNMTASYYQTYCPPTPETDCETQVTTYADFIDSLKTFLTDIPFECKKPGQK | – | – | None of the tested cytokines, other than IFN-γ, had any effect | –
3 | IL-1β: pro-inflammatory cytokine, purchased from PeproTech (protein, UniProt P10749 118-269, looked up) Interleukin-1 beta: VPIRQLHYRLRDEQQKSLVLSDPYELKALHLNGQNINQQVIFSMSFVQGEPSNDKIPVALGLKGKNLYLSCVMKDGTPTLQLESVDPKQYPKKKMEKRFVFNKIEVKSKVEFESAEFPNWYISTSQAEHKPVFLGNNSGQDIIDFTMESVSS | elevated the expression of IFN-γ-receptor | – | – | –
4 | IL-10: Treg-derived cytokine, purchased from PeproTech (protein, UniProt P18893 19-178, looked up) Interleukin-10: SRGQYSREDNNCTHFPVGQSHMLLELRTAFSQVKTFFQTKDQLDNILLTDSLMQDFKGYLGCQALSEMIQFYLVEVMPQAEKHGPEIKEHLNSLGEKLKTLRMRLRRCHRFLPCENKSKAVEQVKSDFNKLQDQGVYKAMNEFDIFINCIEAYMMIKMKS | – | – | None of the tested cytokines, other than IFN-γ, had any effect | –
5 | IL-17: Th17-derived cytokine, purchased from PeproTech (protein, UniProt Q62386 26-158, looked up) Interleukin-17A: AAIIPQSSACPNTEAKDFLQNVKVNLKVFNSLGAKVSSRRPSDYLNRSTSPWTLHRNEDPDRYPSVIWEAQCRHQRCVNAEGKLDHHMNSVLIQQEILVLKREPESCPFTFRVEKMLVGVGCTCVASIVRQAA | – | failed to activate the choroid plexus for trafficking | – | elevated the expression of the chemokine CCL20
